B1: Early protein (Human adenovirus A serotype 12 (HAdV-12)), P03259-2 (parent)
chain: MRTEMTPLVLSYQEADDILEHLVDNFFNEVPSDDDLYVPSLYELYDLDVESAGEDNNEQAVNEFFPESLILAASEGLFLPEPPVLSPVCEPIGGECMPQLHPEDMDLLCYEMGFPCSDSEDEQDENGMAHVSASAAAAAADREREEFQLDHPELPGHNCPVSDNEPEPNSTLDGDERPSPPKLGSAVPEGVIKPVPQRVTGRRRCAVESILDLIQEEEREQTVPVDLSVKRPRCN

Results on 3 variants are retold here after IntAct's records for PubMed 10722738.

The experiment covers variants of B1. The note with it: with cbp_human CREBBP.
On to D16A, for which the “effect of a mutation on the interaction” value is given as “disrupting interaction”.

I18P: the “effect of a mutation on the interaction” value is on record as “decreasing interaction”.

With L19S, the “effect of a mutation on the interaction” value is listed as “decreasing interaction”.
